Read-outs that look alike come from different tables or passages of the source. Each block holds one molecule with its values, some of them ahead of it.
How the values were obtained:
human CA-IX = human CA-IX (Homo sapiens, UniProt Q16790); assay: ELISA species cross reactivity, human CA-IX; format: binding; conditions: 500 nM sdCA9-VHH
Protocol: (§1) Binding above background was measured in an ELISA assay for the binding of 500 nM of sdCA9-VHH antibodies to human CA-II, CA-IV, CA-IX, CA-XII and CA-XIV (isoform cross reactivity, upper panel), then CA-IX for mouse, human, cynomolgus monkey and dog (species cross reactivity, lower panel). (sdCA9-1-VHH ( ? ) and sdCA9-2-VHH ( ? )
(§2) Cross reactivity and CA-IX specificity. Binding specificity and species cross reactivity of two sdAb were tested in an ELISA assay using purified proteins for human, mouse, cynomolgus monkey and dog CA-IX.

[1] = target: T1, purified hCA-IX ECD dimer (Homo sapiens, UniProt Q16790); assay: In vitro rhCA-IX enzyme activity inhibition (4Mu-Ac hydrolysis); format: biochemical; conditions: for IC50: 4Mu-Ac substrate; for inhibition of hCA-IX enzyme activity, in words: hCA-IX dimer, 4Mu-Ac hydrolysis
T1 construct: in vitro enzyme activity assay using purified hCA-IX ECD dimer
Protocol: In vitro rhCA-IX enzyme activity inhibition. In order to examine the functional consequence of the binding of the two sdCA9-VHH antibodies to hCA-IX ECD, antibodies were tested in an in vitro enzyme activity assay using purified hCA-IX ECD dimer and 4-Methylumbelliferyl acetate (4Mu-Ac) as substrate.

cyno CA-IX = assay: ELISA species cross reactivity, cynomolgus monkey CA-IX; format: binding; conditions: 500 nM sdCA9-VHH
Protocol: as §1, §2

[2] = system: 67NR^hCA-IX derived spheroids; assay: Spheroid growth inhibition, 67NR^hCA-IX; format: cell-based, mouse; conditions: for spheroid growth, different concentrations: monitored for 8 days, compared with 67NR derived spheroids
Source text: (§3) Spheroid growth inhibition.

dimeric CA-IX = target: T2, dimeric CA-IX (Homo sapiens, UniProt Q16790); assay: SPR binding affinity, VHH format, dimeric CA-IX; conditions: SPR data (FIG. 3A); monomer or dimer not specified
T2 construct: to the dimeric extracellular domain (ECD) of hCA-IX
Protocol: FIG. 3A is a graph showing the binding kinetics determined by surface plasmon resonance (SPR) for 3 CA-IX single domain antibodies (sdCA9-1, -2, -3-VHH) to the dimeric extracellular domain (ECD) of hCA-IX.
In vitro binding affinity/SPR. To evaluate the binding affinity (KD) of the VHH only format of the […] single domain antibodies, CA-IX monomer and dimer were immobilized on SA sensor chip (GE Healthcare) and serial dilutions of the sdAbs were injected over the surface (FIG. 3A). […] The two single domain antibodies sdCA9-1-VHH and sdCA9-2-VHH were selected for further characterizations.

dog CA-IX = dog CA-IX (Canis lupus familiaris, UniProt A0A8I3NCN1); assay: ELISA species cross reactivity, dog CA-IX; format: binding; conditions: 500 nM sdCA9-VHH
Protocol: as §1, §2

mouse CA-IX = mouse CA-IX (Mus musculus, UniProt Q8VHB5); assay: ELISA species cross reactivity, mouse CA-IX; format: binding; conditions: 500 nM sdCA9-VHH
Protocol: as §1, §2

[3] = system: hCA-IX negative parental 67NR spheroids; assay: Spheroid growth inhibition, parental 67NR; format: cell-based, mouse; conditions: hCA-IX negative cells
Source text: as §3

[4] = [inhibitor] vs. normalized response - variable slope
[5] = [inhibitor] vs. normalized response - variable slope, read-out: IC50 (best fit value)

Sequence of mouse CA-IX (Q8VHB5 32-437): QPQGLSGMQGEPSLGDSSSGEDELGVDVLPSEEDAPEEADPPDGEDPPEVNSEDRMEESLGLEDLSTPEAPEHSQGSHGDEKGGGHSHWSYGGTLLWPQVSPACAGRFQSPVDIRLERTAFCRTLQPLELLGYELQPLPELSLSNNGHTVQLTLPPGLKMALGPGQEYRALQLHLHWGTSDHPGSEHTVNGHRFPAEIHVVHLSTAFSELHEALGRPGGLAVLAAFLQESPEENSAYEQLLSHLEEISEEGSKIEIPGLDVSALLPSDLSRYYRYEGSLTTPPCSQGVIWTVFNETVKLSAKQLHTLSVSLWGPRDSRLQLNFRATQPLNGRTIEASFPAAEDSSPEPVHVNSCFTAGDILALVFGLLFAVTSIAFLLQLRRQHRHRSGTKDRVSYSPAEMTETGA
Sequence of dog CA-IX (A0A8I3NCN1 38-461): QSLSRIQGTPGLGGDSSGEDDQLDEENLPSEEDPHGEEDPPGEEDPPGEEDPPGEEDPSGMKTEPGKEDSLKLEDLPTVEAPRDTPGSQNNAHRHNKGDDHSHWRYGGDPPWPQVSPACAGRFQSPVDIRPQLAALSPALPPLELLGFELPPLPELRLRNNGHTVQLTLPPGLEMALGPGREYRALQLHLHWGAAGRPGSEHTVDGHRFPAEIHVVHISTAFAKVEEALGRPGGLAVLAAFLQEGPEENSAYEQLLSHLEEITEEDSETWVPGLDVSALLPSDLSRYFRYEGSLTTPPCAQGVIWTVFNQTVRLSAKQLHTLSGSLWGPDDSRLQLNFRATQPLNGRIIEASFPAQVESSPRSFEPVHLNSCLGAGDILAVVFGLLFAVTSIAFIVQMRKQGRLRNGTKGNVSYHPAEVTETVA

binding to human CA-IX (human CA-IX): selectively binds
HillSlope (best fit value) [1, 4]: −0.2974
IC50 [1, 5]: 48.4 nM
binding to cyno CA-IX (cyno CA-IX): selectively binds
binding to CA-IX by SPR, in words (dimeric CA-IX): bind with high affinity
B1: sdCA9-2-VHH: llama single domain antibody (VHH) binding CA-IX catalytic domain, amino acid sequence SEQ ID NO: 5 (protein)
VHH: QVKLEESGGDLVQPGGSLRLSCAASGFTLDYYAIGWFRQAPGKEREGVSCFSSVDGSTYYADSVKGRFTISRDNAKNMVYLQMNSLKPEDTAIYYCAAELYGELGVATVQAMCRLTTPGGDYWGQGTQVTVSS
modifications: Amino acid sequence for sdCA9-2-VHH
inhibition of hCA-IX enzyme activity, in words [1]: inhibited the hCA-IX enzyme activity to similar levels achieved by SMI U104
growth of spheroids over time ([2]; 100 μg/mL): specifically inhibits the growth of 67NR^hCA-IX spheroids over time
spheroid growth, different concentrations [2]: inhibited spheroid growth in a dose-dependent manner

B2: sdCA9-3-VHH: llama single domain antibody (VHH) binding CA-IX, amino acid sequence SEQ ID NO: 9 (protein)
VHH: QVQLVESGGGLVQAGDSLRLSCAASGGTFSRYGMGWFRQAPGKEREFVAAISGTGLNTYYMDSVKGRFTISRDNAENTVYLQMNSLKPEDTAVYYCARDRGGVEYDYWGQGTQVTVSS
modifications: A 118 amino acid sequence for CA9-3-VHH
binding to CA-IX by SPR, in words (dimeric CA-IX): binds with high affinity but less so than the other two

binding to human CA-IX (human CA-IX): binds
HillSlope (best fit value) [1, 4]: −0.1194
IC50 [1, 5]: 111 nM
inhibition of hCA-IX enzyme activity, in words [1]: only partially
IC50 ([1]; hCA-IX-ECD dimer, read-out: IC50 values): ~100 nM
binding to cyno CA-IX (cyno CA-IX): binds
binding to dog CA-IX (dog CA-IX): binds
binding to mouse CA-IX (mouse CA-IX): binds
binding to CA-IX by SPR, in words (dimeric CA-IX): bind with high affinity
B3: sdCA9-1-VHH: llama single domain antibody (VHH) binding CA-IX catalytic domain, amino acid sequence SEQ ID NO: 1 (protein)
VHH: QVQLVESGGGLVQAGGSLRLSCAASGFTFDDWAIGWFRQAPGKEREGVSCISKRHGTTHYADSVKGRFTISSDNAKNTVYLRMNGLKPEDTAVYYCAASSWGSCTVATMRDVDRYDYDYWGQGTQVTVSS
modifications: Amino acid sequence for sdCA9-1- VHH
spheroid growth, different concentrations [2]: seemed not to be specific
effect on parental 67NR spheroids [3]: hCA-IX non-specific phenotype

— patent publication US20240076406A1, “SINGLE DOMAIN ANTIBODIES TARGETING CA-IX AS WELL AS COMPOSITIONS COMPRISING SAME” (National Research Council of Canada, priority 2021, published 2024)
